# Source: US20190352376A1
# Where “and” joins values, the source holds several entries; their conditions need not be identical. Identical values can stand only once.
# B1: F211-11H12 (antibody, V domains shown)
# VL: DIVMSQSPSSLAVSVGEKVTMSCKSSQSLLNSRNQKNHLAWYQQKPGQSPKLLIYWASTRESGVPDRFTGDGSGTDFTLTISSVKAEDLAVYYCQQYYTYRTFGGGTKLEIK
# VH: DVQLQESGPGLVKPSQSLSLTCSVTGYSITSDYYWNWIRQFPGNKLEWMAYIGYDGTKNYNPSLKNRISITRDTSKNQFFLKLNSVTTDDTATYYCTRDRANWDDYFDYWGQGTTLTVSS
# Molecular target: peptide-conjugate (Example 1; lactosyl-Ser-…-Cys coupled to KLH) (influenza virus)
binder,measurement,value
B1,EC50 (read off the curve),30 ng/mL and 20 ng/mL
